Where two headings read alike, the source gives them in different places.

The source of these data is patent US20250313632A1.

The target in test [1] is human B7-H3 protein (human) (UniProt Q5ZPR3). Kind of test: Octet (BLI) epitope binning on captured human B7-H3; competitor CA84D.
Test [2] shares this target. Kind of test: Octet (BLI) epitope binning on captured human B7-H3; competitor 72D1D11.
The target is the same in test [3]. Kind of test: Octet (BLI) epitope binning on captured human B7-H3; competitor AHP05562. (In general: BLI is a label-free optical method that tracks binding on a fibre tip over time.)
The target is the same in test [4]. Description: Octet (BLI) epitope binning on captured human B7-H3; competitor AHP06345.
The target of test [5] is human B7-H3 expressed on A375 tumor cells (human) (UniProt Q5ZPR3). Kind of test: flow cytometry on A375 cells, MFI(PE); unit from the axis Conc (nM). A general note: A flow cytometer gives signals particle by particle.
The target of test [6] is human B7-H3 (4Ig) protein (his tag) (human) (UniProt Q5ZPR3). Kind of test: SPR (Biacore T200), antibody captured on Protein A chip, B7-H3 injected, 1:1 model.
Test [7] has as its target human B7-H3 expressed on A375 tumor cells (human) (UniProt Q5ZPR3). Kind of test: flow cytometry on A375 cells, MFI(PE); unit from the axis Conc (nM). The source holds these as a separate data set.

B1: AHP06358 (antibody, V domains shown)
VH: EVQLVQSGAEVKKPGASVKVSCKASGYTFTSYGISWVRQAPGQGLEWMGWISAYNGNTNYAQKLQGRVTMTTDTSTSTAYMELRSLRSDDTAVYYCARDSPLQIAVAGYYYGMDVWGQGTTVTVSS
VL: NFMLTQPHSVSESPGKTVTISCTRSSGSIVSGYVQWYQQRPGSAPSTVIYEHNQRPSGVPDRFSGSIDSSSNSASLTISGLRTEDEADYYCQSYDSRNMIFGGGTKLTVL
With B1, the inhibition ratio in test [1] is -13.6%; in test [2], -13.9%; in test [3], 91.7%; in test [4], -10.6%. Moreover, in test [5], the concentration giving a half-maximal response (EC50) (commonly the concentration at which the effect is half-maximal) amounted to 2.4 nM. For the same molecule, the Kd (commonly the free concentration of one partner at which half of the binding sites on the other are occupied at equilibrium, for simple one-to-one binding) in test [6] was 0.738 nM. Further, the koff (in general, the rate constant with which the complex falls apart) in test [6] came to 0.00396 s⁻¹. In addition, the kon (in general, the rate constant with which the complex forms) in test [6] was found to be 5.37e+06 M⁻¹ s⁻¹.

B2: 294A3C4 (antibody, V domains shown)
VH: QVQLQQPGAELVKPGASVKLSCKASGYTFTSYWMHWVKQRPGQGLEWIGMFHPNSGTTNYNEKFKSKATLTVDKSSSTAYMQLSSLTSEDSAVYYCARRLGIFFDYWGQGTTLTVSS
VL: DIVMTQSPSSLTVTAGEKVTMSCRSSQSLLNSGNQKNYLTWYQQKPGQPPKLLIYWASTRDSGVPDRFTGSGSGTDFTLTISSVQTEDLAVYYCQTDYSYPFTFGSGTKLEIK
With B2, the inhibition ratio in test [1] is -12%; in test [2] it was -5%; in test [3], 90%; in test [4], -7.53%. The same molecule returned an EC50 in test [5] of 0.087 nM. In test [6], this molecule came in with a Kd of 2.92 nM. The koff in test [6] is 0.00135 s⁻¹. Moreover, the kon in test [6] came to 463000 M⁻¹ s⁻¹.

B3: 216E7A9 (antibody, V domains shown)
VH: DVQLVESGGGLVQPGGSRKLSCAASGFTFSSFGMHWVRQAPEKGLEWVAYISSGSSTIYYADTVRGRFTISRDNPKNTLFLQMTSLRSEDTAMYYCARGGDYYYALDYWGQGTSVTVSS
VL: DIQMTQSPASLSVSVGETVTITCRASENIHSNLEWYQQKQGKSPQLLVYAATNLADGVPSRFSGSGSGTQYSLKINSLQSEDFGSYYCQHFWGTPFTFGSGTKLEIK
For the molecule B3, the inhibition ratio amounted to 5.28% in test [1], 98% in test [2], 92.3% in test [3] and 1.99% in test [4]. Also, the EC50 in test [5] worked out at 0.08 nM. In addition, the Kd in test [6] was determined as 2.49 nM. The same molecule came in with a koff in test [6] of 0.000824 s⁻¹. Also, the kon in test [6] came out at 331000 M⁻¹ s⁻¹.

B4: 126C10B10 (antibody, V domains shown)
VH: GVQLQQSGAELVKPGASVKLSCTGSGFNIKDPYIHWVKQRPEQGLEWIGRIDPANGNTKYGPRFQGRATMTADTSSNTANLQLSSLTSEDTAVYYCTTWNYYLSRGFDYWGQGTTLTVSS
VL: QIVLTQSPAIMSASPGEKVTMTCSARSSVTYMHWYQQKSGTSPKRWIYDTSKLASGVPARFSGSGSGTSYSLTISSMEAEDAATYYCQQWTSNPLTFGAGTKLELK
As for B4, the inhibition ratio in test [1] was -9.58%; in test [2] it was 96.6%; in test [3], -22.2%; in test [4] it was -5.98%. In test [5], this molecule displayed an EC50 of 0.22 nM. The molecule also yielded a Kd in test [6] of 0.837 nM. In test [6], the koff worked out at 0.000367 s⁻¹. The same molecule displayed a kon in test [6] of 438000 M⁻¹ s⁻¹.

B5: 106A5B3 (antibody, V domains shown)
VH: EVQLVESGGDLVKPGGSLKLSCAASGFTFSSYGMSWVRQTPDKRLEWVATISSGGSYIYYPDSMKGRFTISRDNAKNTLYLQMSSLQSEDTAIYYCASDYGSRYFDYWGQGTTLTVSS
VL: QIVLTQSPAIMSASPGEKVTMTCSASSSVIYMSWYKQKPGSSPRLLIYDTSNLASGVPVRFSGSGSGTSYSLTISRMEAEDAATYYCQQWSSYPRTFGGGTKLEIK
Regarding B5, the inhibition ratio in test [1] was -15.8%; in test [2], 96.8%; in test [3] it was 89.6%; in test [4] it was -13%. In test [5], this molecule yielded an EC50 of 0.1 nM. The Kd in test [6] worked out at 0.476 nM. Also, in test [6], the koff was 0.000396 s⁻¹. The kon in test [6] was 833000 M⁻¹ s⁻¹.

B6: 62H9H5 (antibody, V domains shown)
VH: QVQLQQSGAELAKPGASVKMSCKASGYTFTNYWIHWVKQRPGQGLEWIGYISPSTGYTEYNQKFKGKATLTAVKSSSTAFMQLSSLTSEDSAVYFCARGTGYWGQGTTLTVSS
VL: DIQMTQSPASLSASVGESVTITCRASENIYSFFAWYQQKEGKSPQLLVYNAKTLEEGVPSRFSGSGSGTQFSLKINSLQPEDFGSYYCQHNYVSPFTFGSGTKLEIK
As for B6, the inhibition ratio in test [1] was -6.07%; in test [2], 95.5%; in test [3] it was 90.2%; in test [4], -7.1%. Further, the EC50 in test [5] worked out at 0.042 nM. The same molecule gave a Kd in test [6] of 0.464 nM. This molecule also displayed an off-rate (koff) in test [6] of 0.00016 s⁻¹. In test [6], this molecule displayed a kon of 346000 M⁻¹ s⁻¹.

B7: 72D1D11-z1 (antibody, V domains shown)
VH: QVQLVQSGSELKKPGASVKVSCKASGYTFTNLGLNWVRQAPGQGLEWMGWINTAGGQPTYAEDFKGRFVFSLDTSVSTAYLQISSLKAEDTAVYYCARDDGYYYTMDYWGQGTTVTVSS
VL: DIVMTQTPLSLPVTPGEPASISCRSSQSLVHSNGKTYLHWYLQKPGQSPQLLIYKVSNRFSGVPDRFSGSGSGTDFTLKISRVEAEDVGVYYCSQSTHVPWTFGGGTKLEIK
For B7, the half-maximal effective concentration (EC50) in test [7] was found to be 0.63 nM.

B8: 72D1D11-z3p1 (antibody, V domains shown)
VH: QVQLVQSGSELKKPGASVKVSCKASGYTFTNLGLNWVRQAPGQGLEWMGWINTAGGQPTYAEDFKGRFVFSLDTSVSTAYLQISSLKAEDTAVYYCARDDGYYYTMDYWGQGTTVTVSS
VL: DIVMTQSPLSLPVTPGEPASISCRSSQSLVHSNAKTYLHWYLQKPGQSPQLLIYKVSNRFSGVPDRFSGSGSGTDFTLKISRVEAEDVGVYYCSQSTHVPWTFGGGTKLEIK
In test [5], B8 showed an EC50 of 0.36 nM.

B9: 72D1D11-z3p2 (antibody, V domains shown)
VH: QVQLVQSGSELKKPGASVKVSCKASGYTFTNLGLNWVRQAPGQGLEWMGWINTAGGQPTYAEDFKGRFVFSLDTSVSTAYLQISSLKAEDTAVYYCARDDGYYYTMDYWGQGTTVTVSS
VL: DIVMTQSPLSLPVTPGEPASISCRSSQSLVHSQGKTYLHWYLQKPGQSPQLLIYKVSNRFSGVPDRFSGSGSGTDFTLKISRVEAEDVGVYYCSQSTHVPWTFGGGTKLEIK
Turning to B9, in test [5], the EC50 came to 0.3 nM.

B10: 72D1D11-z4 (antibody, V domains shown)
VH: QVQLVQSGSELKKPGASVKVSCKASGYTFTNLGLNWVRQAPGQGLEWMGWINTAGGQPTYAEDFKGRFVFSLDTSVSTAYLQISSLKAEDTAVYYCARDDGYYYTMDYWGQGTTVTVSS
VL: DIVMTQSPLSLPVTPGEPASISCRSSQSLVHSNGKTYLHWYLQKPGQSPQLLIYKVSNRFSGVPDRFSGSGSGTDFTLKISRVEAEDVGVYFCSQSTHVPWTFGGGTKLEIK
Turning to B10, the EC50 in test [7] was determined as 0.49 nM.

B11: 72D1D11-z2 (antibody, V domains shown)
VH: QVQLVQSGSELKKPGASVKVSCKASGYTFTNLGLNWVRQAPGQGLEWMGWINTAGGQPTYAEDFKGRFVFSLDTSVSTAYLQISSLKAEDTAVYYCARDDGYYYTMDYWGQGTTVTVSS
VL: DIVMTQTPLSLPVTPGEPASISCRSSQSLVHSNGKTYLHWYLQKPGQSPQLLIYKVSNRFSGVPDRFSGSGSGTDFTLKISRVEAEDVGVYFCSQSTHVPWTFGGGTKLEIK
In the case of B11, the EC50 in test [7] was determined as 0.52 nM.

B12: 72D1D11-z5 (antibody, V domains shown)
VH: QVQLVQSGSELKKPGASVKVSCKASGYTFTNLGLNWVRQAPGQGLEWMGWINTAGGQPTYAEDFKGRCVFSLDTSVSTAYLQISSLKAEDTAVYYCARDDGYYYTMDYWGQGTTVTVSS
VL: DIVMTQTPLSLPVTPGEPASISCRSSQSLVHSNGKTYLHWYLQKPGQSPQLLIYKVSNRFSGVPDRFSGSGSGTDFTLKISRVEAEDVGVYYCSQSTHVPWTFGGGTKLEIK
Take B12: the EC50 in test [7] came to 0.51 nM.

B13: 72D1D11-z6 (antibody, V domains shown)
VH: QVQLVQSGSELKKPGASVKVSCKASGYTFTNLGLNWVRQAPGQGLEWMGWINTAGGQPTYAEDFKGRCVFSLDTSVSTAYLQISSLKAEDTAVYYCARDDGYYYTMDYWGQGTTVTVSS
VL: DIVMTQTPLSLPVTPGEPASISCRSSQSLVHSNGKTYLHWYLQKPGQSPQLLIYKVSNRFSGVPDRFSGSGSGTDFTLKISRVEAEDVGVYFCSQSTHVPWTFGGGTKLEIK
For the molecule B13, the EC50 in test [7] was 0.54 nM.

B14: 227E12D1 (antibody, V domains shown)
VH: EVKLVESGGGLVKPGGSLKLSCAASGFTFSSYGMSWVRQTPEKRLEWVATISGGGTYTYYPDSVKGRFTISRDNAKNNLYLQMSSLRSDDTALYYCARHEGLVMDYWGQGTSVTVSS
VL: DIQMTQSPASLSASVGETVTITCRASENIYSYLAWYQQKQGKSPQLVVYNAKTLAEGVPSRFSGSGSGTQFSLKINSLQPEDFGTYYCQHHYGPPPYTFGGGTKLEIK
Turning to B14, the inhibition ratio in test [1] was -5.46%; in test [2], 97.1%; in test [3] it was 90%; in test [4], -5.22%. This molecule also registered a 50% effective concentration (EC50) in test [5] of 0.093 nM. In test [6], this molecule registered a Kd of 0.619 nM. The molecule also gave a koff in test [6] of 0.000368 s⁻¹. The kon in test [6] was 595000 M⁻¹ s⁻¹.

B15: 97E6B2 (antibody, V domains shown)
VH: QVQLQQPGAELVKPGASVKMSCKASGYTFTSYWITWVKQRPGQGLEWIGDIYPGSNNTYYNEKFKSKATLTVDTSSSTAYIQLSSLTSEDSAVYYCARLIMSLFDYSGQGTTLTVSS
VL: ENVLTQSPANMSASPGEKVTMTCSVSSSVSYIHWYQQKSSTSPTLWIYDTSKLASGVPGRFSGSGSGNSYALTISSMEAEDVATYYCFQGSAYPLTFGAGTKLELK
For the molecule B15, the inhibition ratio in test [1] is -3.99%; in test [2] it was 99.7%; in test [3], -7.8%; in test [4], -1.18%. The EC50 in test [5] turned out to be 0.26 nM. For the same molecule, the Kd in test [6] turned out to be 0.743 nM. This molecule showed an off-rate (koff) in test [6] of 0.000481 s⁻¹. In test [6], this molecule registered a kon of 647000 M⁻¹ s⁻¹.
